# According to the DeepSol protein solubility set:
# Experiment: soluble on expression in E. coli; label from the status in PepcDB or PDB records
row,Sequence,soluble on expression in E. coli
1,MGSDKIHHHHHHESSFLNLSDPNYFTESNFWKDKADAESALAAAYSPIKGAMYGYFGAFDGWLNLNGRGDDIYTIKGEEVPMWNIANFLNSPSTGNDPYGALYSGIQRANIVLRYIDQIPASGITEEDRSMIKGEALFLRGYQYFLLVNNYKEVPLRLIPSNEDETNKAAATEAALWAQVEEDLDNAIKCNLPVERSTAKERITKGAAIAMLGKVYATQHKYPEAKQLLGTLLKAPYSYELMDNFEKNFTNEEEFNKESVFELAYSPDGDYSWSNESGICLGCYIPQFIGPVKSGGWAKLMPNSLIVGEFTKETRPSDADTKFDKRMYASLFFDAANYGDKVPNEKWYGNNYSMDDLWEGNEGKMAGGAPSFNVNGTAGKFLIKKNTAYYVDDKAPDNMGNKEGRSSNLRVMRFAEVLLLYAEACAKTNDPDGANYALKQIRQRAGLTEKTFAQAELMNEIEHQCLLEFFAEGHRFDDLKRWYSPSEIQLIFKANGKQGAENFQEKHLYYPIPTSELNNNTAMEQTSLWK,not soluble
2,MGSDKIHHHHHHFRSFLMRDREKARKYVLKEIEKFGKRAFTWLFSDVVVEGSENIPKDRNFIVVANHQSLMDIPLILGFVATGAFIAKEELRKIPGVNWYIRYLNGVFLDRKNPRRAVRALREAIEKLKNGVTFIVFPEGTRSPDGKVLSFKKDSLMIAVKTGVPVLPVSIWGTYHLIPKGRWTFTPGKVFLKIHEPVDPKGFSSEEELRKYVEEVVKRGVEELKARWSK,not soluble
3,MGSDKIHHHHHHGAGISTESGIPDYRSKDVGLYARIAHKPIYFQDYMRSNRCRQRYWSRNFLAWPRFGQAAPNINHYALSKWEASDRFQWLITQNVDGLHLKAGSKMVTELHGSALQVKCTTCDYIESRQTYQDRLDYANPGFKEEHVAPGELAPDGDIILPLGTEKGFQIPECPSCGGLMKTDVTFFGENVNMDKVNFCYEKVNECDGILSLGTSLAVLS,not soluble
4,MGSDKIHHHHHHGAGVSTGSKLPDFRGKQGVWTLQAEGKHAEGVDFQVARPGVSHKSILALHKAGYIKTIITQNVDGLDRKVGIPVEDLIEVHGNLFLEVCQSCFSEYVREEIVMSVGLCPTGRNCEGNKRTGRSCRGKLRDATLDWDTEISLNHLDRIRKAWKQTSHLLCIGTSLEIIPMGSLPLDAKSKGIKTTTINYQETAHEKIVETAIHADVKLILYSLCNALGVNVDLGDDLPDEVPIPLKIS,not soluble
5,MGSDKIHHHHHHGCSDDFKSGLRLDGDVWVNSIRLDEYAGTVDYQNKAIVVGVPYDYDITRMVVTEMNLSEGAKASIAIGETIDFSLPVSLTVKNGDVQMSYTITVKRDEAKILTFKLNDTYVGKVDQLSKTISVVVPLTVDITQLKGTFTVTDGATVTPASGSIQDFTNPVTYTATYRSAVTPYVVTVTQGNVIPTAFVGTASSVSLLTSPEEKAAAQWMMDNVSMSEYISFKDVVDGKVDLGKYTAIWWHFHADNGDNPPLPDDAKAAAEKFKVYYQNGGNLLLTRYATFYIANLGIAKDERVPNNSWGGNEDSPEITSAPWSFLITGSESHPLFQDLRWKDGDKSTVYTCDAGYAITNSTAQWHIGTDWGGYDDLNAWRNLTGGIDLAHGGDGAVVIAEFEPRSNSGRTLCIGSGCYDWYGKGVDASADYYHYNVEQMTLNAINYLCK,not soluble
6,MGSDKIHHHHHHGGEDYVQAEQAPMLKIPEGLKTPPYNKEYDVPALGPKANPALVGKNLDIRPPLQVLPMAEGTHVEEGSDNIKIVVESIDNNVDLKQEIFTNLDDFFAKQAIPIRSRDFDKGSIETDWIESREVLESSLWGSDKEYLLRQRYRFDVETRPHGRTANIVIHLVEHEEFYDGKEQKVMLSGEDKQRYTIDMLNSAIAYMSVKREQTIQANRLKQTLGINVDLITPEEGAAYWSAKAAYKQVWDRLRIVLPEMGFEISDMDSAKGLYFIKFTDNSGFWSSLWNNNQLSLKEGSYRLLLEDGDTPDETKIWLRDAEDQPLSNDVVSKVYESLSSLMKEERKLR,not soluble
7,MGSDKIHHHHHHINVYFRGPRTHRMPQWVRVVFLQFLPKLVCMKRPKSASERSAVRSGMAQLPGVGQFTLSPSAHHPLCPSADDRTTTIRNTASNETSAYYPLSTDALRAIDAIEYITEHLKRDEQHKSFRDDWKYVAMIIDRL,not soluble
8,MGSDKIHHHHHHKIEELTAVPLQIGYEKTLHLIFPTEVKYYSIGGDYVIGEKVVNCPGIIRLKAAEENFPGETTLSVVTADTKFYSYSISYNAHPAQSYVRIGGEAPTPHTLPVGKEKQLFLIFPAGITYVDYGSTNVEVDKAEGVDNILAVKAVQPYKEDTNISVVLEGGKFYTFDLRYVPAPERFSFVIDKEDTQRVAILDEKERSYGQKERIREAVAKRTPLDLGLRDKNSGMEFEVGNIFIDGDVLLLRMTLTNRTQIGYTTDFMRFYIQDAKIRKKTAVQQLEQNILFTFDYPEEIPAHESRTFTVAMNKFTIPDKKRLIIEIQERNGGRHFLYKLKNKSLLTAEEVFRSRKQQETEDEADKILRRIAR,not soluble
9,MGSDKIHHHHHHKQLVHEGYRVTGCKRSAEELSALTEVGIEAYPLQLGSEAPSAPDAQALSGLFQTDYLVVNIPPRLKRGNAAYLEELQQLIALTQGWQYQQIVFISTTGVYPAKDKVMTEADALAESSDSQVLLDAEALFQVLPHACIVRFAGLVGPKRHPGRFLAGKTDVSGANVAVNLVHLSDCVSAVSRILAATGSGLSVAPIYNLCAPTHPTKAEFYQAAAESLGLVAPEFNQQSMPSKVIQGDAIVTDLGFRYQYASPQDMLAAC,not soluble
10,MGSDKIHHHHHHLCLIKPGLKVLEIGCGTGRVLKPLLESGASVVGVDISHEMLALAHNKLASFCDSGALRLLNHNFVYSSIPERFDRVFVTFYTFNYLLSYENALSFLKNIYSSMNDGAVLLMDMFFPSIYHNPAIEGKWQQRYLNLGAKQIRLSDRRTMRGPMEKREQVFEEDGGRQEITTLRRFYDKNETARLLREAGFSSVKFTDVYDSTLFHQLELLEATDRGFLVMGRREAGGGEG,not soluble
11,MGSDKIHHHHHHLDNSTSTATIDPPLRLGLAMWSQNQWQQTVYGNSQAHRLARYAEIFNTVEGNTTFYATPSLQNVQNWYAATHDEFKFTFKLPKHITHELQLQHAGPALQQFFSIMEPLINRTGVWKIQLPASFGPQSLPQLAQFLTQVPQGLTYGVEVRNSAFFAKGEAEQALNRLLIDNNCNRIIMDTRPVFAAAPTTAAVIDAHQKKPKVPVHAIATAHNPVVRFIGHPQAEANIHFFQNWLKQLPLWIAQNKQPYLFIHTPDNHNAPQLAVDLYRLLQQQLAQSTSALTDINLLPQQQHTTTQMGFDL,not soluble
12,MGSDKIHHHHHHLDVDTGKLQSLAASRYGARGARAVDDWLQLLRNDTSASEANQLARVNAFWNQRVLSGEDTHIWGRADYWATPLETLGKGAGDCEDYVIGKYFSLISLGVPTEKLRFIYVRARIGGPYSNQQIAHMVLGYYPTPNAVPLVLDSLISTIMPANERRDLTPVFSFNADGVYVDGKQASPVDRLSRWRDLLLRMEREGLRP,not soluble
13,MGSDKIHHHHHHLKAIKYGVTREHIREFKVALTDGKVYKFGSKSVKSSSGYSLNDLIIGSEGTLGVITEAVLRLYPRPKHALNAIIPFPTLDDAIESVPAILASGVEYMGRKVLNLWEKYYDATFPIKEGDGFIILGIDSFTASDAEAQLAQALEAVKPFHALKETVLNAESDEAKTIWDAREKLLLAIQKSTPKMDEVDVSVPINKIPLVLHRIEELEKEEDMRIPNFGHAGDGNLHIYLCSDDMTDEEFAKKGDNVISELYKTAKSVDGNMSGEHGVGYARQNYYEDFYGKDYTDLLRKVKGLFDPKGILNPDKIFPLD,not soluble
14,MGSDKIHHHHHHLLQAELGITSQRHFYSIGHLFPCGQLLERSRFNRRSKQLIWLVQFIRKAMSEMLPSDKLAIIDSFPLPLCQPVRNHRASIFKGLADIGYNASKHLWFYGFKVHMLVTLSGYILNYVVTPASVHDIKVVYELLEGCKQSVILGDLGYLSSELKKDLEQEGYHLWTPFRKNMTGAEEHNNWKVMAMRRTIETRFSELCRLFDIEHTLTRSLAGLQLRMEQIILAHNLRYFEMN,not soluble
15,MGSDKIHHHHHHLNTLKTNAMEIFKQAVSTLNNPEVQGWKQQGGKVVGYFYSYIPEELITAAGLLPYKIRGIGSPGAAMADKYFTHNVCSLVRDTFELVLKGECDFLDGVINFNGCDHIRRISDNWQSLENNPCFHFLVLPKKVGKEQTERYREELVSLKASIEKRFNLVISEDKLKEAIRLHNKKRQLQRRLYELKKRENPPLSGAETLTVMIAGTVMPVARYNRLLAELIDELSISEGKKPNARLMLIGGELDNPELLKILESQGGMVVSDTMALGAREIACDVSETEDGLTALARYHMEDKPPCPRLYGTFQERFDFIRKTAREYQVDGVISLRFLLCDIWGFEQNDIAEILRTEKLPYLKLETEYALTNAGQLKTRVQAFVETLGEV,not soluble
16,MGSDKIHHHHHHLPALPHIPIPVNFEEYCQQKAAPPGSSTYYALRQAPAASQPLLTALFALRREFEETVKETSDPTIGRTKLAWWQNEIAALASDSPSHPVSKALAAYLPDVKTEYPALQTLLAGFEMDLDQARYLDYPNLRRYVQGVGGTFASLVARATAKDAAQASNWSAPLGEALMLAQFVVETGHDARHGRIYIPIDEMQRFNVTAADLINRKYTEAFTELMRFETKRARDALQSALGAVPGSERRTQRTLVAQAALASALLDEIERDGYHVLHQRIALTPIRKLWIAWRAK,not soluble
17,MGSDKIHHHHHHLQVEKNVVISEFIVNMEDVLYHRDNTDVNIAEKVAEQTASLAHYGVAHYVLTNATNQQDSDNLHIVQTDLFEHYPKLTLYFYRILMAFDFLQAHPEIEKAALTDAGDVKMLNYPFDAVEDGILYMGDETIFIYDTSILIGYDGPQFIKDFIWENGHLPILNLGIMVGTRETLIEYLGIMVKLITEAELSLAQGNDEAFLGTYKMAISNYVAYYYFKDRLVHGNQVSTIFHGEQMVSGAWFKHK,not soluble
18,MGSDKIHHHHHHLRLFGTKDEQLFMLFSESARVVVRGGDILQNVVNDYSDLDIKMAKLTAMEHEGDRIIQELIRRLNTSFILPFDREDAFQLAQKLSTTLDYITGIIDRMILYKTGRPNKRVKEMVNVLCEALFLQERALNLLQSLEHNKREILECCEEIRQLERKQDNHYRQGLALLFENEEEPIVIIKWREVYEHIEMAQDYVQDVAELISNICVKYS,not soluble
19,MGSDKIHHHHHHLRLQLSTWPEVADYLSTRRGVIIPIGSTEQHGPSGLIGTDAITAEVVSWRAGEVLDTLVAPTIAVGMAHHHMAFPGSMTLRPSTLIAVIRDTILALSSHGFTRFLFVNGHGGNIPSIQSAFYEAYEEMRVHHGDGAPDIACQLCSWFSSPAVEALAAEAFGDAEGSHATPSEVSVTWHAYPDQQRTPVLDPPVAPQGRFTDSRDFRRAFPDGRIGSNPALATPELGGRFVEVAVDYIATTYGDFLKG,not soluble
20,MGSDKIHHHHHHLTLMGLSVTDYDSEMPDATEPGTTERSLVELLLAEGPSTRLELQAKLGVSRPTLSSAVNKLLSLGLLQEQGTAAYGAGRNGRPQALLAPNRAMGAAVGIELGKAQVAVTILAIDGTVHAQKVTSTSPGTTLQRRLNIALGSVGTFISSNILNPESVLGVGVGVSGLHPDARPAGGSALVDPPGAKLDKLRTLLAAPVVWDNNTRMATFRHLGGSGLDSPGAVLYVVLSAGVSAGIVDGGEVLRGRGAAGELGHVCLDPEGPVCGCGSRGCLEAYVGVEAVLRSARGKGATVADLEELAAVVQSGDADALAVIGLVGRMLGIGLNNAAMLVDPRRIILTGPLLSLGPALVSAATEELRIRRMAVTLGVPDVVAEIGSPFDSSHGAALTALRRWGPGFMGMLTQNGIATTG,not soluble
